# Results published in paper PMC6393303.
# Key:
# [1] = target: wild-type proliferating cell nuclear antigen (PCNA) (yeast) (UniProt P15873)
# [2] = target: pcna-6 (DD41,42AA) mutant PCNA (yeast) (UniProt P15873)
# [3] = target: wild-type proliferating cell nuclear antigen (PCNA) (yeast) (UniProt P15873); remark: listed apart in the source
# [4] = target: wild-type proliferating cell nuclear antigen (PCNA) (yeast) (UniProt P15873); remark: listed apart in the source
# [5] = target: pcna-6 (DD41,42AA) mutant PCNA (yeast) (UniProt P15873); remark: listed apart in the source
# [6] = target: wild-type proliferating cell nuclear antigen (PCNA) (yeast) (UniProt P15873); remark: listed apart in the source
# wild-type proliferating cell nuclear antigen (PCNA) (yeast), sequence (P15873 whole entry): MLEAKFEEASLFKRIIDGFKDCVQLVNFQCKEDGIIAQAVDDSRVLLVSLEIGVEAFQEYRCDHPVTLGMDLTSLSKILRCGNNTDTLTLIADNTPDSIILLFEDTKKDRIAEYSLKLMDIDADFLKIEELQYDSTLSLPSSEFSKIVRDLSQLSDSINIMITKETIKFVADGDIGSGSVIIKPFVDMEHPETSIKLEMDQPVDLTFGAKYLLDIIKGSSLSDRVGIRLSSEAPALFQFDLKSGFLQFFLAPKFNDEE
# pcna-6 (DD41,42AA) mutant PCNA (yeast), sequence (P15873 other isoform, or with tags, fused parts or gaps mutant): as the sequence (P15873 whole entry) above, with D41A, D42A counted along it
Substance,"single-nucleotide extension rate (k fast), quench flow, 76/29 template/primer, 12°C [1]","single-nucleotide extension rate (k fast), quench flow, 76/29 template/primer, 12°C [2]","nucleotide incorporation rate (rate of primer disappearance, single exponential fit), quench flow, 75/29 template/primer, 300 nM mini-Pol δ-DV, 150 nM PCNA, 75 nM RFC, AMP-CPP, 100 mM NaCl, 30°C [3]","peak of the normalized product distribution (nucleotides incorporated) at 10 and 50 ms, single processive cycle with heparin trap [4]","peak of the normalized product distribution (nucleotides incorporated) at 10 and 50 ms, single processive cycle with heparin trap [5]","replication of the T20 template by the fastest moving complexes, quench flow, 100 mM NaCl (nucleotides per second) [6]"
"DNA polymerase δ (Pol δ-DV), full-length exonuclease-deficient (D520V) heterotrimer (from UniProt P15436 1-1097; P46957 1-487; P47110 1-350) (complex)",183 s⁻¹,55 s⁻¹,–,–,–,–
"mini-Pol δ-DV (variant DNA polymerase δ heterotrimer, exonuclease-deficient D520V) (from UniProt P15436 82-1097; P46957 1-487; P47110 1-350) (complex)",–,–,> 350 s⁻¹,16 nucleotides,7 nucleotides,500
